Experimental data as given in article doi:10.1101/2021.02.10.430713.

Target: Listeria monocytogenes c-di-AMP effector protein Lmo0553 (Listeria monocytogenes)
Test: crystal structure

**Q.** Which stoichiometry N does the source give for “Listeria monocytogenes c-di-AMP effector protein Lmo0553 (natural protein)” here?
**A.** Its stoichiometry N is 2.
